Laboratory results as given in US20060045883A1, “Anti-cancer vaccines” (priority 2004, published 2006).

Target: HLA-A2.1 (HLA-A*0201) on the surface of T2 cells (human)

B1: Influenza B nucleoprotein peptide (aa 85-94; Flu), P04665 85-94 (peptide)
peptide: KLGEFYNQMM
modifications: not checked
Median Channel of Fluorescence of HLA-A2 Expression on T2: 194
